Measurements as given in article PMC8386461.

Columns and labels:
Assay in all cases: SPR
[1] = target: Nonglycosylated human basigin ectodomain (BSG-2, E. coli-expressed) (human)
[2] = target: Glycosylated human basigin (BSG-2, mammalian cell-expressed) (human)
[3] = target: Human IgG1 CR3022 antibody (human)
Chain of Human IgG1 CR3022 antibody (human) (heavy, as listed by the source, chain 1 of 2): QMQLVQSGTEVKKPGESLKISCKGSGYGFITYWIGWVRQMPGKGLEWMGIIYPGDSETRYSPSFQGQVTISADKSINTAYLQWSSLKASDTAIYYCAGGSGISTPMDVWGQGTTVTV
Chain of Human IgG1 CR3022 antibody (human) (light, as listed by the source, chain 2 of 2): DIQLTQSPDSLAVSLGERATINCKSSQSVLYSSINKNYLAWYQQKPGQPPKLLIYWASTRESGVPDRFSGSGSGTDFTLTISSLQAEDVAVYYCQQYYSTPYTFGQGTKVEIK

Substance	Kd [1]	Kd [2]	Kd [3]
Plasmodium falciparum reticulocyte-binding protein homolog 5 (recombinant RH5) (from UniProt Q8IFM5 26-526) (ligand)	925 nM	665 nM	–
SARS-CoV-2 spike receptor binding domain (from UniProt P0DTC2 319-541) (domain or fragment)	–	–	190 nM
